Assay results taken from patent publication US20230407373A1 (priority 2020, published 2023).
Where two headings read alike, the source gives them in different places.

How the values were obtained:
Type in all cases: binding
[1] = test system: HCoV-OC43 gRNA and sgRNA; conditions: for target (unweighted spectral count): OC43 Probe II, infected cells; for target (unweighted spectral count) / target (unweighted spectral count, OC43 Probe II capture): tested against no-probe control; for target (unweighted spectral count, OC43 Probe II) / background (unweighted spectral count, no-probe control): type n_48_v, 48 hpi; for target (unweighted spectral count, OC43 Probe II): OC43 Probe II capture on infected cells; for background (unweighted spectral count, no-probe control): no-probe control on infected cells; for target (unweighted spectral count, OC43 Probe II capture): FDR<10%; for target (spectral count) / background (spectral count): type s_36_m, Probe II; for target (spectral count): HCoV-OC43-infected HCT-8 cells; for background (spectral count): uninfected-probe control
[2] = test system: gRNA of HCoV-OC43; conditions: for target (spectral count) / background (spectral count): type g_36_m, 36 hpi, Probe I; for target (spectral count): HCoV-OC43-infected HCT-8 cells; for background (spectral count): uninfected-probe control; for target (spectral count, OC43 Probe I RNP capture) / background (spectral count, no-probe control): type n_48_v: 48 hours post-infection; for target (spectral count, OC43 Probe I RNP capture): infected cells, unweighted spectral count; for background (spectral count, no-probe control): no-probe control on infected cells
[3] = test system: SARS-CoV-2 gRNA; conditions: for target (unweighted spectral count in RNP capture): Probe I capture, LC-MS/MS LFQ; for background (unweighted spectral count in control): no-probe control pull-down, used as background for Probe I; for target (unweighted spectral count of the protein in the RNP capture): LC-MS/MS, Probe I sample (first 199 lines of Table 2)

Molecule	target (unweighted spectral count) ([1]; 12 hpi (type n_12_v))	target (unweighted spectral count) ([1]; 24 hpi (type n_24_v))	target (unweighted spectral count, OC43 Probe II) [1]	background (unweighted spectral count, no-probe control) [1]	target (spectral count) [2]	background (spectral count) [2]	target (spectral count, OC43 Probe I RNP capture) [2]	background (spectral count, no-probe control) [2]	target (unweighted spectral count in RNP capture) [3]	background (unweighted spectral count in control) [3]	target (unweighted spectral count, OC43 Probe II capture) ([1]; 24 hpi, type n_24_v)	target (unweighted spectral count, OC43 Probe II capture) ([1]; 36 hpi, type n_36_v)	target (unweighted spectral count of the protein in the RNP capture) [3]	target (spectral count) ([1]; 36 hpi)	background (spectral count) ([1]; 36 hpi)
HNRNPUL1: host protein, UniProt Q9BU32 (protein, UniProt Q9BUJ2 1-856, looked up) Heterogeneous nuclear …: MDVRRLKVNELREELQRRGLDTRGLKAELAERLQAALEAEEPDDERELDADDEPGRPGHINEEVETEGGSELEGTAQPPPPGLQPHAEPGGYSGPDGHYAMDNITRQNQFYDTQVIKQENESGYERRPLEMEQQQAYRPEMKTEMKQGAPTSFLPPEASQLKPDRQQFQSRKRPYEENRGRGYFEHREDRRGRSPQPPAEEDEDDFDDTLVAIDTYNCDLHFKVARDRSSGYPLTIEGFAYLWSGARASYGVRRGRVCFEMKINEEISVKHLPSTEPDPHVVRIGWSLDSCSTQLGEEPFSYGYGGTGKKSTNSRFENYGDKFAENDVIGCFADFECGNDVELSFTKNGKWMGIAFRIQKEALGGQALYPHVLVKNCAVEFNFGQRAEPYCSVLPGFTFIQHLPLSERIRGTVGPKSKAECEILMMVGLPAAGKTTWAIKHAASNPSKKYNILGTNAIMDKMRVMGLRRQRNYAGRWDVLIQQATQCLNRLIQIAARKKRNYILDQTNVYGSAQRRKMRPFEGFQRKAIVICPTDEDLKDRTIKRTDEEGKDVPDHAVLEMKANFTLPDVGDFLDEVLFIELQREEADKLVRQYNEEGRKAGPPPEKRFDNRGGGGFRGRGGGGGFQRYENRGPPGGNRGGFQNRGGGSGGGGNYRGGFNRSGGGGYSQNRWGNNNRDNNNSNNRGSYNRAPQQQPPPQQPPPPQPPPQQPPPPPSYSPARNPPGASTYNKNSNIPGSSANTSTPTVSSYSPPQPSYSQPPYNQGGYSQGYTAPPPPPPPPPAYNYGSYGGYNPAPYTPPPPPTAQTYPQPSYNQYQQYAQQWNQYYQNQGQWPPYYGNYDYGSYSGNTQGGTSTQ	4	8	11	1	13	2	11	1	5	1	–	–	–	–	–
SRSF5: host protein, UniProt Q13243 (protein, UniProt Q13243 1-272, looked up) Serine/arginine-rich splicing …: MSGCRVFIGRLNPAAREKDVERFFKGYGRIRDIDLKRGFGFVEFEDPRDADDAVYELDGKELCSERVTIEHARARSRGGRGRGRYSDRFSSRRPRNDRRNAPPVRTENRLIVENLSSRVSWQDLKDFMRQAGEVTFADAHRPKLNEGVVEFASYGDLKNAIEKLSGKEINGRKIKLIEGSKRHSRSRSRSRSRTRSSSRSRSRSRSRSRKSYSRSRSRSRSRSRSKSRSVSRSPVPEKSQKRGSSSRSKSPASVDRQRSRSRSRSRSVDSGN	–	–	12	2	8	1	–	–	5	1	4	10	–	–	–
HNRNPR (protein, UniProt O43390 2-633, looked up) Heterogeneous nuclear …: ANQVNGNAVQLKEEEEPMDTSSVTHTEHYKTLIEAGLPQKVAERLDEIFQTGLVAYVDLDERAIDALREFNEEGALSVLQQFKESDLSHVQNKSAFLCGVMKTYRQREKQGSKVQESTKGPDEAKIKALLERTGYTLDVTTGQRKYGGPPPDSVYSGVQPGIGTEVFVGKIPRDLYEDELVPLFEKAGPIWDLRLMMDPLSGQNRGYAFITFCGKEAAQEAVKLCDSYEIRPGKHLGVCISVANNRLFVGSIPKNKTKENILEEFSKVTEGLVDVILYHQPDDKKKNRGFCFLEYEDHKSAAQARRRLMSGKVKVWGNVVTVEWADPVEEPDPEVMAKVKVLFVRNLATTVTEEILEKSFSEFGKLERVKKLKDYAFVHFEDRGAAVKAMDEMNGKEIEGEEIEIVLAKPPDKKRKERQAARQASRSTAYEDYYYHPPPRMPPPIRGRGRGGGRGGYGYPPDYYGYEDYYDDYYGYDYHDYRGGYEDPYYGYDDGYAVRGRGGGRGGRGAPPPPRGRGAPPPRGRAGYSQRGAPLGPPRGSRGGRGGPAQQQRGRGSRGSRGNRGGNVGGKRKADGYNQPDSKRRQTNNQQNWGSQPIAQQPLQQGGDYSGNYGYNNDNQEFYQDTYGQQWK	13	24	76	4	–	–	63	4	–	–	–	52	32	–	–
RBMX (protein, UniProt P38159 1-391, looked up) RNA-binding motif protein, X …: MVEADRPGKLFIGGLNTETNEKALEAVFGKYGRIVEVLLMKDRETNKSRGFAFVTFESPADAKDAARDMNGKSLDGKAIKVEQATKPSFESGRRGPPPPPRSRGPPRGLRGGRGGSGGTRGPPSRGGHMDDGGYSMNFNMSSSRGPLPVKRGPPPRSGGPPPKRSAPSGPVRSSSGMGGRAPVSRGRDSYGGPPRREPLPSRRDVYLSPRDDGYSTKDSYSSRDYPSSRDTRDYAPPPRDYTYRDYGHSSSRDDYPSRGYSDRDGYGRDRDYSDHPSGGSYRDSYESYGNSRSAPPTRGPPPSYGGSSRYDDYSSSRDGYGGSRDSYSSSRSDLYSSGRDRVGRQERGLPPSMERGYPPPRDSYSSSSRGAPRGGGRGGSRSDRGGGRSRY	4	6	20	1	–	–	17	1	–	–	–	12	6	–	–
HNRNPD (protein, UniProt Q14103 2-355, looked up) Heterogeneous nuclear …: SEEQFGGDGAAAAATAAVGGSAGEQEGAMVAATQGAAAAAGSGAGTGGGTASGGTEGGSAESEGAKIDASKNEEDEGHSNSSPRHSEAATAQREEWKMFIGGLSWDTTKKDLKDYFSKFGEVVDCTLKLDPITGRSRGFGFVLFKESESVDKVMDQKEHKLNGKVIDPKRAKAMKTKEPVKKIFVGGLSPDTPEEKIREYFGGFGEVESIELPMDNKTNKRRGFCFITFKEEEPVKKIMEKKYHNVGLSKCEIKVAMSKEQYQQQQQWGSRGGFAGRARGRGGGPSQNWNQGYSNYWNQGYGNYGYNSQGYGGYGGYDYTGYNNYYGYGDYSNQQSGYGKVSRRGGHQNSYKPY	–	17	36	2	–	–	26	2	–	–	–	–	37	–	–
PUF60: host protein, UniProt Q9UHX1 (protein, UniProt Q9UHX1 1-559, looked up) Poly(U)-binding-splicing …: MATATIALQVNGQQGGGSEPAAAAAVVAAGDKWKPPQGTDSIKMENGQSTAAKLGLPPLTPEQQEALQKAKKYAMEQSIKSVLVKQTIAHQQQQLTNLQMAAVTMGFGDPLSPLQSMAAQRQRALAIMCRVYVGSIYYELGEDTIRQAFAPFGPIKSIDMSWDSVTMKHKGFAFVEYEVPEAAQLALEQMNSVMLGGRNIKVGRPSNIGQAQPIIDQLAEEARAFNRIYVASVHQDLSDDDIKSVFEAFGKIKSCTLARDPTTGKHKGYGFIEYEKAQSSQDAVSSMNLFDLGGQYLRVGKAVTPPMPLLTPATPGGLPPAAAVAAAAATAKITAQEAVAGAAVLGTLGTPGLVSPALTLAQPLGTLPQAVMAAQAPGVITGVTPARPPIPVTIPSVGVVNPILASPPTLGLLEPKKEKEEEELFPESERPEMLSEQEHMSISGSSARHMVMQKLLRKQESTVMVLRNMVDPKDIDDDLEGEVTEECGKFGAVNRVIIYQEKQGEEEDAEIIVKIFVEFSIASETHKAIQALNGRWFAGRKVVAEVYDQERFDNSDLSA	–	–	7	1	–	–	9	1	–	–	–	7	7	7	1
FBL: host protein, UniProt P22087 (protein, UniProt P22087 1-321, looked up) rRNA 2'-O-methyltransferase …: MKPGFSPRGGGFGGRGGFGDRGGRGGRGGFGGGRGRGGGFRGRGRGGGGGGGGGGGGGRGGGGFHSGGNRGRGRGGKRGNQSGKNVMVEPHRHEGVFICRGKEDALVTKNLVPGESVYGEKRVSISEGDDKIEYRAWNPFRSKLAAAILGGVDQIHIKPGAKVLYLGAASGTTVSHVSDIVGPDGLVYAVEFSHRSGRDLINLAKKRTNIIPVIEDARHPHKYRMLIAMVDVIFADVAQPDQTRIVALNAHTFLRNGGHFVISIKANCIDSTASAEAVFASEVKKMQQENMKPQEQLTLEPYERDHAVVVGVYRPPPKVKN	–	–	–	–	10	1	9	2	–	–	4	11	5	11	1
